Results: the RNAGym collection of RNA variant scans (doi:10.7554/elife.80360)

B1: HDV Ribozyme (parent)
chain: GGCCGGCAUGGUCCCAGCCUCCUCGCUGGCGCCGGCUGGGCAACAUUCCGAGGGGACCGUCCCCUCGGUAAUGGCGAAUGGGACCCA

Variants of: B1
Experiment: self-cleavage, relative activity (ratio to wild type); higher = more cleavage; co-transcriptional

Variant	self-cleavage
G5C G74U	0.161
G5C G74C	0.0978
G6U A56U	0.703
G5U G28C	0.0554
G6U A87G	0.377
G6U A87C	0.592
G6A G67C	0.643
G5U A77C	0.192
G5U A77U	0.158
G6A A45U	0.486
G6A G53A	0.874
G6A G53U	0.786
G6C A87C	0.312
G6C A87U	0.282
G6U A8G	0.346
G6U A8U	0.403
G5U C33G	0.65
G5U	0.469
G5C	0.213
G5A G54A	0.177
G5U G25U	0
G5U G25C	0
G5C G76A	0.415
G6C G82C	0.0405

Variant	self-cleavage
G6C G82A	0
G6A G73U	0.111
G6A G73C	0.312
G6C G25U	0.166
G6C U65C	0.277
G5U C57A	0.383
G5C G31U	0.0405
G5U G80U	0.0405
G6A C61U	0.899
G6A C7G	0.208
G6A C7A	0.185
G5C C84A	0.142
G6A G82A	0.252
G5C G82C	0
G6A G81A	0.282
G6A G81U	0.0773
G6A G81C	0.0378
G6A G39A	0.277
G6C U46C	0.145
G6U C26G	0.364
G5U U20C	0
G6C C19G	0.192
G6C C19A	0
G6C A83G	0.189

Variant	self-cleavage
G6C G73U	0.0923
G5C A83U	0
G5C C57U	0.185
G5C C32U	0.0573
G5C C32G	0
G5U C75U	0.0573
G5U G29U	0.0594
G6C A45G	0.361
G6C A45U	0.0615
G6A A77C	0.178
G5U C49U	0.791
G5U C49A	0.415
G6A C44G	0.111
G5U C58G	0.262
G5U C58U	0.277
G5U A42C	0.178
G5U C61G	0.262
G5U C61A	0.399
G6C U72A	0.0755
G6C U72C	0.0831
G6C G54C	0.604
G6U C24G	0.0462
G5A G59U	0.222
G5A G59C	0.219

Variant	self-cleavage
G6A C66U	0.521
G6A C66A	0.724
G5U U65A	0.453
G6C G28C	0
G5A U65C	0.308
G5C C49G	0.192
G5U G55C	0.465
G5U U12C	0.0831
G5U U12A	0.332
G6A U47A	0.35
G5C U27G	0.302
G5C G50U	0.0361
G6C U47G	0.158
G6C U47A	0.0875
G6U	0.63
G6C	0.294
G6A	0.726
G5U C66G	0.554
G6A G76A	0.744
G5U G11A	0.18
G5U G11U	0.156
G6U C22A	0.0489
G6C A43U	0.0594
G6C G53U	0.138

Variant	self-cleavage
G6C C30A	0.0415
G6A A87U	0.602
G5U A43C	0
G6A G35A	0.302
G6A A8G	0.554
G5U G73C	0.249
G6A C85A	0.895
G5C A16G	0.145
G5C A16U	0.237
G6C A42G	0
G5A G68C	0.17
G5A G68A	0.164
G6U C13U	0.249
G6A G34U	0
G5U U60A	0.447
G5U U60C	0.604
G6A G38C	0
G6A G38A	0.0554
G6A U72G	0.246
G6A U72A	0.0875
G5U A51C	0.277
G5U G34U	0.0426
G6U A70G	0.571
G5U G50C	0.192

Variant	self-cleavage
G6C C49U	0.489
G6C C48U	0.277
G6A A83G	0.302
G6A A83C	0.291
G6C C86A	0.482
G6C G50C	0.554
G6A U46A	0.208
G5C C61U	0
G5C C61G	0.287
G6U C15G	0.0875
G5U C36A	0.208
G6C C22A	0
G5U G59A	0.529
G6A U23A	0.569
G6A C26U	0.787
G5A G67U	0.17
G5A G67A	0.125
G6U C48G	0.374
G5A U9C	0.0639
G6C A16G	0.151
G6C A16C	0.712
G5C G59U	0.128
G5A U20A	0.0437
G5A U20G	0.185

Variant	self-cleavage
G5C C44A	0
G5C U46C	0.26
G5C U46G	0.0573
G5C U46A	0.0639
G5U C30A	0.0462
G5U C7U	0
G5U C7G	0.104
G6C G38C	0
G6A C84U	0.628
G6A C84G	0.122
G5C C26U	0.489
G6C U79A	0.119
G6C U69G	0.166
G6C U9A	0.256
G6A A42G	0
G5U C86G	0.26
G6U C61U	0.525
G6U A78C	0.252
G5A U23G	0.0923
G6C U37A	0.0791
G6C U37C	0.923
G5A U79G	0.0923
G5U C48A	0.712
G5U A45U	0.277

Variant	self-cleavage
G5A U47A	0.208
G6C C36A	0.095
G5U A56C	0.831
G5U A56U	0.431
G5C A87C	0.268
G5C A87U	0.175
G5A G50A	0.192
G6A A16U	0.446
G6A A16C	0.111
G6U C19G	0.0692
G6U C19A	0.0326
G5C G40U	0.104
G6A G29U	0.0563
G5C G11A	0.0449
G5U U47C	0.185
G5A U37C	0.764
G5C G52C	0.095
G5C G52A	0.252
G6A G80C	0.0941
G5C C15G	0.249
G5U G10C	0.462
G5U G10U	0.181
G6A C33U	0.172
G6A C33A	0.0678

Variant	self-cleavage
G5C G54A	0.0831
G5U C18A	0.0875
G6C C66G	0.332
G5A G82C	0
G6C A51C	0.225
G5C G81C	0
G5C G81U	0.131
G5A G74C	0.0923
G5U G76C	0.227
G6C G68U	0.277
G5C U9G	0.111
G5C U9C	0.312
G5C A78U	0.0755
G5U A71C	0
G5U A71U	0.185
G5A U60A	0.125
G5A U60G	0
G5U G17U	0.18
G6U C44U	0.162
G6A U37C	0.853
G6C A70G	0.175
G6C G17C	0
G6U C62A	0.54
G6U C62G	0.332

Variant	self-cleavage
G5C C58U	0.293
G6A A78C	0.0615
G6A A78G	0.554
G5C C13G	0.262
G6A U69A	0.525
G5C A8C	0
G5C G53A	0.162
G5A G55U	0.122
G6C C14U	0.453
G6C C14A	0
G6C G10C	0.0875
G5C G6U	0.185
G6U C58A	0.672
G6U C58G	0.628
G6U C58U	0.617
G6C G76U	0.604
G6C G76A	0.297
G6U A71U	0.415
G5U C22U	0.158
G6A U60G	0.365
G6A U60C	0.789
G6A U60A	0.811
G5A G53U	0.309
G6C A77G	0.0791

Variant	self-cleavage
G5A G38U	0.0804
G5A G38A	0.147
G6C C44G	0.0692
G6A C41U	0.431
G6A C41A	0.326
G6A C41G	0.107
G6A C13U	0.145
G6U C7A	0.227
G5U G82A	0.185
G5U G82U	0.128
G5C G29U	0
G5C U20C	0.0875
G6A C14U	0.87
G5C C64A	0.178
G5U A16C	0.383
G5U A16U	0.0978
G5C C48U	0.308
G5U C84G	0.262
G5C U72C	0.123
G6C G34A	0.0536
G6A G10A	0.372
G6A C24G	0.108
G5A G81A	0.0978
G6A U79A	0.322

Variant	self-cleavage
G6A U79C	0.128
G5U G6A	0.208
G6C C21A	0
G6A A70G	0.629
G6C C75U	0.095
G5U G53A	0.332
G5U G53C	0.489
G5U G53U	0.268
G5U G39A	0.217
G5U G81U	0.166
G6C A56C	0.401
G6C G80U	0.0692
G6U C49G	0.306
G6U C49A	0.582
G6U C49U	0.485
G6A A51U	0.778
G5C G80C	0.17
G5A G80U	0.0971
G5A G80A	0.143
G6C G11C	0.138
G6C G11A	0
G6C G55U	0.177
G6C G55C	0.308
G5A G52C	0.253

Variant	self-cleavage
G5A G52A	0.227
G6A G50U	0.708
G5U U79G	0
G6A G68A	0.704
G5U U46A	0.119
G6A C64G	0.604
G6A C64A	0.869
G5U A83G	0.0573
G6U A42G	0.214
G6U A42C	0
G5A G40C	0.136
G5U G54A	0.314
G5C A56C	0
G6A C19A	0.0346
G5C C62U	0.222
G5C C62A	0.0665
G6A G59A	0.776
G5U U72C	0.119
G5U U72A	0.128
G5U U72G	0.277
G5C U12G	0.0831
G5C U12A	0.0791
G5C G35A	0.113
G5C G35U	0.0308

Variant	self-cleavage
G5U G52U	0.277
G5U G52A	0.283
G5U G52C	0.475
G6A U20G	0.262
G6C C18A	0.0791
G6C C18U	0.0923
G6A C86U	0.759
G6A C86G	0.802
G6C C32A	0.482
G6C G40A	0.259
G5C U60A	0.166
G5C U60C	0
G5A G35U	0.0396
G5C C30U	0.128
G5C U37C	0.161
G5U U27A	0.443
G5U U27G	0.665
G6C G35C	0.0723
G6C G35U	0.256
G5C A43U	0.0489
G6A G52A	0.831
G5U C14U	0.612
